Laboratory results reported in the supplement of paper PMC7877785.
± gives the uncertainty stated by the source.

Test: self-splicing fitness, log relative to wild type (ln ratio); higher = more splicing; Tetrahymena group I intron in knt gene, E. coli kanamycin selection, DiMSum; sequences stand for … in CUCUCU…GGAGGGAAAAGUUAUCAGGCAUGCACCUGGUAGCUAGUCUUUAAACCAAUAGAUUGCAUCGGUUUAAAAGGCAAGACCGUCAAAUUGCGGGAAAGGGGUCAACAGCCGUUCAGUACCAAGUCUCAGGGGAAACUUUGAGAUGGCCUUGCAAAGGGUAUGGUAAUAAGCUGACGGACAUGGUCCUAACCACGCAGCCAAGUCCUAAGUCAACAGAUCUUCUGUUGAUAUGGAUGCAGUUCACAGACUAAAUGUCGGUCGGGGAAGAUGUAUUCUUCUCAUAAGAUAUAGUCGGACCUCUCCUUAAUGGGAGCUAGCGGAUGAAGUGAUGCAACACUGGAGCCGCUGGGAACUAAUUUGUAUGCGAAAGUAUAUUGAUUAGUUUUGGAGUACUCGUGGUCG
Summary of the method: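 The eight P1ex-region nucleotides of an intron in the knt kanamycin-resistance gene on pET-22b(+) were all randomised and the library put into E. coli BL21(DE3). Six replicate transformations were grown overnight at 37°C or 30°C on LB agar with or without 25 μg/mL kanamycin, together with 100 μg/mL carbenicillin, 50 μM IPTG and 0.2% rhamnose. Colonies were pooled and amplicon-sequenced on an Illumina HiSeq 2500. Fitness from DiMSum is the error-weighted combination of wild-type-normalised replicate fold changes, kanamycin over none.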

Sequence	self-splicing fitness (ln) (30 °C)	self-splicing fitness (ln) (37 °C)
GAGUAGCAAUAUUACGAAGC	-2.94 ± 0.32	-1.8 ± 0.44
GAGUAGCAAUAUUACGAAUG	-3.18 ± 0.26	-1.89 ± 0.22
GAGUAGCAAUAUUACGACAA	-0.891 ± 0.12	-0.0944 ± 0.12
GAGUAGCAAUAUUACGACAC	-0.768 ± 0.18	-0.953 ± 0.27
GAGUAGCAAUAUUACGAUGA	-1.87 ± 0.2	-2.22 ± 0.23
GAGUAGCAAUAUUACGCAAG	-3.43 ± 0.26	-0.127 ± 0.1
GAGUAGCAAUAUUACGCAUA	-2.47 ± 0.25	-1.54 ± 0.24
GAGUAGCAAUAUUACGCGAG	-3.35 ± 0.16	-0.947 ± 0.1
GAGUAGCAAUAUUACGCGCC	-1.42 ± 0.3	-0.361 ± 0.29
GAGUAGCAAUAUUACGCGCG	-0.178 ± 0.21	-1 ± 0.2
GAGUAGCAAUAUUACGCGGG	-3.59 ± 0.2	-2.55 ± 0.16
GAGUAGCAAUAUUACGCUCA	-0.591 ± 0.15	-0.761 ± 0.15
GAGUAGCAAUAUUACGGCCU	-0.381 ± 0.12	0.808 ± 0.19
GAGUAGCAAUAUUACGGGAG	-2.18 ± 0.19	-3.1 ± 0.24
GAGUAGCAAUAUUACGGGAU	-3.73 ± 0.33	-2.96 ± 0.35
GAGUAGCAAUAUUACGGGGA	-2.51 ± 0.14	-2.45 ± 0.2
GAGUAGCAAUAUUACGGUCA	-0.51 ± 0.12	0.0478 ± 0.12
GAGUAGCAAUAUUACGUAAU	-2.16 ± 0.13	-2.38 ± 0.16
GAGUAGCAAUAUUACGUAGG	-3.9 ± 0.24	-1.81 ± 0.17
GAGUAGCAAUAUUACGUCGA	-1.43 ± 0.15	-0.114 ± 0.14
GAGUAGCAAUAUUACGUCUG	-0.699 ± 0.12	-0.363 ± 0.15
GAGUAGCAAUAUUACGUGCC	-1.79 ± 0.23	-0.846 ± 0.18
GAGUAGCAAUAUUACGUGGU	-3.48 ± 0.25	-0.852 ± 0.29
GAGUAGCAAUAUUACGUGUA	-2.97 ± 0.11	-1.35 ± 0.1
GAGUAGCAAUAUUACGUUUC	-2.82 ± 0.18	-2.54 ± 0.27

Sequence	self-splicing fitness (ln) (30 °C)	self-splicing fitness (ln) (37 °C)
GAUAAGCAAUAUUACGAAAA	-2.98 ± 0.17	-2.47 ± 0.2
GAUAAGCAAUAUUACGAAUC	-3.17 ± 0.25	-2.16 ± 0.25
GAUAAGCAAUAUUACGACAU	-0.4 ± 0.012	0.0172 ± 0.032
GAUAAGCAAUAUUACGACCC	-0.0888 ± 0.28	-0.582 ± 0.37
GAUAAGCAAUAUUACGACGU	-0.187 ± 0.076	0.339 ± 0.091
GAUAAGCAAUAUUACGAGGU	-3.42 ± 0.13	-2.79 ± 0.13
GAUAAGCAAUAUUACGCAGC	-3.45 ± 0.47	-0.777 ± 0.29
GAUAAGCAAUAUUACGCCAC	-3.11 ± 0.44	-2.13 ± 0.36
GAUAAGCAAUAUUACGGAUA	-1.73 ± 0.12	-1.31 ± 0.15
GAUAAGCAAUAUUACGGCCG	-1.35 ± 0.1	-0.332 ± 0.15
GAUAAGCAAUAUUACGGCCU	-0.624 ± 0.08	-0.592 ± 0.11
GAUAAGCAAUAUUACGGUAC	-1.92 ± 0.12	-0.383 ± 0.17
GAUAAGCAAUAUUACGGUUC	-3.24 ± 0.43	-2.5 ± 0.31
GAUAAGCAAUAUUACGGUUG	-2.65 ± 0.12	-1.26 ± 0.11
GAUAAGCAAUAUUACGUCCU	-0.907 ± 0.14	-0.0126 ± 0.19
GAUAAGCAAUAUUACGUCUA	-1.18 ± 0.075	-0.275 ± 0.085
GAUAAGCAAUAUUACGUGCC	-0.717 ± 0.1	-0.548 ± 0.13
GAUAAGCAAUAUUACGUGGG	-3.77 ± 0.23	-2.27 ± 0.25
GAUAAGCAAUAUUACGUGGU	-4.24 ± 0.19	-2.35 ± 0.15
GAUCAGCAAUAUUACGAGGA	-1.43 ± 0.13	-1.85 ± 0.13
GAUCAGCAAUAUUACGAUCG	-1.17 ± 0.096	0.0523 ± 0.13
GAUCAGCAAUAUUACGAUUG	-0.607 ± 0.079	-0.237 ± 0.11
GAUCAGCAAUAUUACGCAAG	-1.99 ± 0.15	-1.34 ± 0.14
GAUCAGCAAUAUUACGCCUG	-0.866 ± 0.17	0.935 ± 0.19
GAUCAGCAAUAUUACGCCUU	-0.124 ± 0.12	0.438 ± 0.14

Sequence	self-splicing fitness (ln) (30 °C)	self-splicing fitness (ln) (37 °C)
GAUCAGCAAUAUUACGCGAC	-1.63 ± 0.15	-1.62 ± 0.15
GAUCAGCAAUAUUACGCGAU	-3.92 ± 0.21	-2.6 ± 0.2
GAUCAGCAAUAUUACGCGCA	0.225 ± 0.092	-0.0411 ± 0.1
GAUCAGCAAUAUUACGCGGA	-1.45 ± 0.18	-0.828 ± 0.14
GAUCAGCAAUAUUACGCGGG	-2.31 ± 0.1	-1.33 ± 0.11
GAUCAGCAAUAUUACGCUAG	-1.15 ± 0.15	-0.723 ± 0.18
GAUCAGCAAUAUUACGGACC	-0.933 ± 0.32	-1.08 ± 0.36
GAUCAGCAAUAUUACGGCAA	-0.689 ± 0.084	-1.24 ± 0.087
GAUCAGCAAUAUUACGGCAC	-0.826 ± 0.099	0.413 ± 0.17
GAUCAGCAAUAUUACGGCUC	0.00813 ± 0.1	0.687 ± 0.12
GAUCAGCAAUAUUACGUAUC	-3.17 ± 0.21	-2.62 ± 0.21
GAUCAGCAAUAUUACGUCCC	-2.07 ± 0.41	-0.381 ± 0.22
GAUCAGCAAUAUUACGUCCG	-3.26 ± 0.26	-1.66 ± 0.22
GAUCAGCAAUAUUACGUUGA	-2.24 ± 0.17	-1.54 ± 0.15
GAUGAGCAAUAUUACGAAGC	-1.4 ± 0.41	0.175 ± 0.21
GAUGAGCAAUAUUACGACGU	-1.09 ± 0.094	-0.283 ± 0.11
GAUGAGCAAUAUUACGACUG	-3.11 ± 0.44	
GAUGAGCAAUAUUACGAGCC	-0.987 ± 0.31	-1.53 ± 0.41
GAUGAGCAAUAUUACGAUUC	-2.42 ± 0.46	
GAUGAGCAAUAUUACGAUUG	-4.96 ± 0.45	-2.67 ± 0.22
GAUGAGCAAUAUUACGCAUA	-2.68 ± 0.21	-1.98 ± 0.21
GAUGAGCAAUAUUACGCGGA	-2.72 ± 0.12	-2.15 ± 0.11
GAUGAGCAAUAUUACGCGGU	-3.33 ± 0.28	-2.77 ± 0.34
GAUGAGCAAUAUUACGCGUU	-4.44 ± 0.28	-3.27 ± 0.21
GAUGAGCAAUAUUACGGAAG	-2.31 ± 0.33	
